Source: publication PMC9160049, “Cryo-EM structures of Gid12-bound GID E3 reveal steric blockade as a mechanism inhibiting substrate ubiquitylation” (Nature Communications, 2022)

Columns and labels:
[1] = target: Chelator-GID^SR4 (Gid7-Gid4-Gid5-Gid1-Gid8-Gid2-Gid9), Twin-Strep at the C-terminus of Gid8 (S. cerevisiae) (UniProt P53076); assay: cryo-EM structure; Cage-GID^SR4 prepared without Gid12, co-expressed in Hi5 cells and purified; 19.8 Å map fitted with three Chelator-GID^SR4 models
[2] = target: PHSVTP-Fbp1 (Fbp1 with its N-terminus exchanged to Mdh2 degron) (S. cerevisiae) (UniProt P09201); assay: cryo-EM structure; purified Cage-GID^SR4 at 1 mg/ml with fivefold molar excess of purified PHSVTP-Fbp1 added directly before grid preparation; 12.2 Å; 25 mM HEPES pH 7.5, 50 mM NaCl, 5 mM DTT
[3] = target: Gid12-Chelator-GID^SR4 (Gid12-Gid7-Gid4-Gid5-Gid1-Gid8-Gid2-Gid9), Twin-Strep at the C-terminus of Gid8 (S. cerevisiae) (UniProt Q12027); assay: cryo-EM structure; maps of Gid12-GID^SR4 (9.8 Å), Gid12-Chelator-GID^SR4 (19.4 Å) and Gid12-Cage-GID^SR4 (20.6 Å), complexes co-expressed in Hi5 cells and purified; docked with Gid12-SRS and prior structures
[4] = target: the molecule itself; assay: cryo-EM structure; purified Chelator-GID^SR4 at 0.6 mg/ml with threefold molar excess of purified Mdh2-6×His added directly before grid preparation; 18.9 Å; 25 mM HEPES pH 7.5, 150 mM NaCl, 5 mM DTT
[5] = target: T1, 3×HA-Gid4 (endogenously N-terminally HA-tagged Gid4) (S. cerevisiae (endogenous in BY4741), UniProt P38263 1-362); assay: affinity purification with mass spectrometry; 3×HA-Gid4 on anti-HA resin, eluted with HA peptide, from BY4741 GID12-9×cMYC lysate; glycolytic conditions, ethanol starvation for 16 h or carbon recovery; iBAQ quantification; conditions: partners not purified
T1 construct: Gid4 (Vid24), S. cerevisiae, tagged at the endogenous locus; source: endogenous locus, BY4741 GID12-9×cMYC::kanMX4, 3×HA-GID4 yeast, in lysate; not shown: 3×HA, N-terminal, kept
T1 sequence (looked up): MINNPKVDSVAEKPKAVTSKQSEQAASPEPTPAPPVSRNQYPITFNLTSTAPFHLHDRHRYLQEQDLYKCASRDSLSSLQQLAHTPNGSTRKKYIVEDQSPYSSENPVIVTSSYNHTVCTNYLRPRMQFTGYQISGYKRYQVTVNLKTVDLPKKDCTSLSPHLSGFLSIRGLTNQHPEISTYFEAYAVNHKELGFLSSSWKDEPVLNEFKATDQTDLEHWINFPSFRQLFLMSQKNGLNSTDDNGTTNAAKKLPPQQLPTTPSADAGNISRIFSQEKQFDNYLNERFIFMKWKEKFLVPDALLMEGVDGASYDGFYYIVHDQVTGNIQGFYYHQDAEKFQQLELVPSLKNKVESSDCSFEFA

Chelator-GID^SR4 (Gid7-Gid4-Gid5-Gid1-Gid8-Gid2-Gid9), Twin-Strep at the C-terminus of Gid8, P53076 1-958; Q12508 1-421; P38263 1-362; P40547 1-921; P25569 1-745; P40208 1-455; P40492 1-516
stoichiometry N [1]: 3

PHSVTP-Fbp1 (Fbp1 with its N-terminus exchanged to Mdh2 degron) (from UniProt P09201 1-348) (enzyme)
stoichiometry N [2]: 4

Gid12-Chelator-GID^SR4 (Gid12-Gid7-Gid4-Gid5-Gid1-Gid8-Gid2-Gid9), Twin-Strep at the C-terminus of Gid8, Q12027 1-708; P53076 1-958; Q12508 1-421; P38263 1-362; P40547 1-921; P25569 1-745; P40208 1-455; P40492 1-516
stoichiometry N [3]: 3

B1: Mdh2-6×His (enzyme, S. cerevisiae, UniProt P22133 2-377, looked up)
chain: PHSVTPSIEQDSLKIAILGAAGGIGQSLSLLLKAQLQYQLKESNRSVTHIHLALYDVNQEAINGVTADLSHIDTPISVSSHSPAGGIENCLHNASIVVIPAGVPRKPGMTRDDLFNVNAGIISQLGDSIAECCDLSKVFVLVISNPVNSLVPVMVSNILKNHPQSRNSGIERRIMGVTKLDIVRASTFLREINIESGLTPRVNSMPDVPVIGGHSGETIIPLFSQSNFLSRLNEDQLKYLIHRVQYGGDEVVKAKNGKGSATLSMAHAGYKCVVQFVSLLLGNIEQIHGTYYVPLKDANNFPIAPGADQLLPLVDGADYFAIPLTITTKGVSYVDYDIVNRMNDMERNQMLPICVSQLKKNIDKGLEFVASRSASS
notes: Mdh2 (malate dehydrogenase), S. cerevisiae; The name is written Mdh2-6×His; also called malate dehydrogenase; source: purified
stoichiometry N [4]: 2

B2: Gid12-9×cMYC (natural protein, S. cerevisiae (endogenous in BY4741), UniProt Q12027 1-708, looked up)
chain: MATGRIQFAVSTPCNTKGKPSGYRLFEFKNDRLALVPSERGCTKVDVNANIQAFCYLRPNGRDTSISPDATHILDSCDYMVLAKSNGFIEIISNYQYKIKNGLRLAPSYILRCTPEDFESNFFSDYMIAGLEYSQGLLYCCMCSGRIYVFVMNLPTDYIQYKNMYNPMFPDCFFKVHHDNNTTHSSEEEKLFEGSTRYTGRSCSKHICYFLLPIEPSHLRSSPVVSSFCNMYQGLPIYRPSMYLHIERGISTFHINPLDRFCFMTVSPRSPLFIRKIILPLTYVTFLSTFISLKNSIQGDTCGEILSWDNVAQQNGFGSLFSWISNKFTFDTDIINSTIWDDIVKYSGTGMLDSGIVWKQRQGHAKDDIYELFHTQDMLGSSRRNSSFSTASSEPRPLSRRRRESFQALTRDAFRERMDVPCSTKWELDSFIRGLRRNTFMVDFEIVEKISHRNGNDGVNEDDNTTDESDETMTSFLTDNYKKMDIVCIDHFVTLSAFRPRYYDEPIIKIDSLSNKNGSENGTNEEEWAESQMKVDGQVIDDETAQFKQALGNLCSFKKLFMLDDSLCFILDTHGVLLINRFEIKNTKNLLRNSKDTIRIIPHDFGLINDTIVIINDIDVGTDNVCALTFHLVVTSMAGEITVLKGEFFKNCRLGRIKLCDSLKLNRKDRFVDKLALIDYDGLNAQKRRLDYDEKDLYTFIVKKVKRD
notes: Gid12 (Ipf1, YDL176W), S. cerevisiae, tagged at the endogenous locus; The strain name is written GID12-9×cMYC; source: endogenous locus, BY4741 GID12-9×cMYC::kanMX4, 3×HA-GID4 yeast, in lysate
ratio of Gid12 to Gid4 in the Gid4 immunoprecipitate (iBAQ), glycolytic growth conditions [5]: ~0.2 Gid12:Gid4 | stoichiometry of Gid12 to Gid4 in the Gid4 immunoprecipitate (iBAQ), gluconeogenic growth conditions [5]: ~1 Gid12:Gid4
